The source of these data is doi:10.1101/2024.12.20.629683 (bioRxiv, 2024).

The target in the test is Ryanodine receptor 1 (RyR1) (rabbit (endogenous in skeletal muscle), UniProt P11716). The test is described as follows: cryo-EM structure.
Chain of Ryanodine receptor 1 (RyR1) (P11716 whole entry): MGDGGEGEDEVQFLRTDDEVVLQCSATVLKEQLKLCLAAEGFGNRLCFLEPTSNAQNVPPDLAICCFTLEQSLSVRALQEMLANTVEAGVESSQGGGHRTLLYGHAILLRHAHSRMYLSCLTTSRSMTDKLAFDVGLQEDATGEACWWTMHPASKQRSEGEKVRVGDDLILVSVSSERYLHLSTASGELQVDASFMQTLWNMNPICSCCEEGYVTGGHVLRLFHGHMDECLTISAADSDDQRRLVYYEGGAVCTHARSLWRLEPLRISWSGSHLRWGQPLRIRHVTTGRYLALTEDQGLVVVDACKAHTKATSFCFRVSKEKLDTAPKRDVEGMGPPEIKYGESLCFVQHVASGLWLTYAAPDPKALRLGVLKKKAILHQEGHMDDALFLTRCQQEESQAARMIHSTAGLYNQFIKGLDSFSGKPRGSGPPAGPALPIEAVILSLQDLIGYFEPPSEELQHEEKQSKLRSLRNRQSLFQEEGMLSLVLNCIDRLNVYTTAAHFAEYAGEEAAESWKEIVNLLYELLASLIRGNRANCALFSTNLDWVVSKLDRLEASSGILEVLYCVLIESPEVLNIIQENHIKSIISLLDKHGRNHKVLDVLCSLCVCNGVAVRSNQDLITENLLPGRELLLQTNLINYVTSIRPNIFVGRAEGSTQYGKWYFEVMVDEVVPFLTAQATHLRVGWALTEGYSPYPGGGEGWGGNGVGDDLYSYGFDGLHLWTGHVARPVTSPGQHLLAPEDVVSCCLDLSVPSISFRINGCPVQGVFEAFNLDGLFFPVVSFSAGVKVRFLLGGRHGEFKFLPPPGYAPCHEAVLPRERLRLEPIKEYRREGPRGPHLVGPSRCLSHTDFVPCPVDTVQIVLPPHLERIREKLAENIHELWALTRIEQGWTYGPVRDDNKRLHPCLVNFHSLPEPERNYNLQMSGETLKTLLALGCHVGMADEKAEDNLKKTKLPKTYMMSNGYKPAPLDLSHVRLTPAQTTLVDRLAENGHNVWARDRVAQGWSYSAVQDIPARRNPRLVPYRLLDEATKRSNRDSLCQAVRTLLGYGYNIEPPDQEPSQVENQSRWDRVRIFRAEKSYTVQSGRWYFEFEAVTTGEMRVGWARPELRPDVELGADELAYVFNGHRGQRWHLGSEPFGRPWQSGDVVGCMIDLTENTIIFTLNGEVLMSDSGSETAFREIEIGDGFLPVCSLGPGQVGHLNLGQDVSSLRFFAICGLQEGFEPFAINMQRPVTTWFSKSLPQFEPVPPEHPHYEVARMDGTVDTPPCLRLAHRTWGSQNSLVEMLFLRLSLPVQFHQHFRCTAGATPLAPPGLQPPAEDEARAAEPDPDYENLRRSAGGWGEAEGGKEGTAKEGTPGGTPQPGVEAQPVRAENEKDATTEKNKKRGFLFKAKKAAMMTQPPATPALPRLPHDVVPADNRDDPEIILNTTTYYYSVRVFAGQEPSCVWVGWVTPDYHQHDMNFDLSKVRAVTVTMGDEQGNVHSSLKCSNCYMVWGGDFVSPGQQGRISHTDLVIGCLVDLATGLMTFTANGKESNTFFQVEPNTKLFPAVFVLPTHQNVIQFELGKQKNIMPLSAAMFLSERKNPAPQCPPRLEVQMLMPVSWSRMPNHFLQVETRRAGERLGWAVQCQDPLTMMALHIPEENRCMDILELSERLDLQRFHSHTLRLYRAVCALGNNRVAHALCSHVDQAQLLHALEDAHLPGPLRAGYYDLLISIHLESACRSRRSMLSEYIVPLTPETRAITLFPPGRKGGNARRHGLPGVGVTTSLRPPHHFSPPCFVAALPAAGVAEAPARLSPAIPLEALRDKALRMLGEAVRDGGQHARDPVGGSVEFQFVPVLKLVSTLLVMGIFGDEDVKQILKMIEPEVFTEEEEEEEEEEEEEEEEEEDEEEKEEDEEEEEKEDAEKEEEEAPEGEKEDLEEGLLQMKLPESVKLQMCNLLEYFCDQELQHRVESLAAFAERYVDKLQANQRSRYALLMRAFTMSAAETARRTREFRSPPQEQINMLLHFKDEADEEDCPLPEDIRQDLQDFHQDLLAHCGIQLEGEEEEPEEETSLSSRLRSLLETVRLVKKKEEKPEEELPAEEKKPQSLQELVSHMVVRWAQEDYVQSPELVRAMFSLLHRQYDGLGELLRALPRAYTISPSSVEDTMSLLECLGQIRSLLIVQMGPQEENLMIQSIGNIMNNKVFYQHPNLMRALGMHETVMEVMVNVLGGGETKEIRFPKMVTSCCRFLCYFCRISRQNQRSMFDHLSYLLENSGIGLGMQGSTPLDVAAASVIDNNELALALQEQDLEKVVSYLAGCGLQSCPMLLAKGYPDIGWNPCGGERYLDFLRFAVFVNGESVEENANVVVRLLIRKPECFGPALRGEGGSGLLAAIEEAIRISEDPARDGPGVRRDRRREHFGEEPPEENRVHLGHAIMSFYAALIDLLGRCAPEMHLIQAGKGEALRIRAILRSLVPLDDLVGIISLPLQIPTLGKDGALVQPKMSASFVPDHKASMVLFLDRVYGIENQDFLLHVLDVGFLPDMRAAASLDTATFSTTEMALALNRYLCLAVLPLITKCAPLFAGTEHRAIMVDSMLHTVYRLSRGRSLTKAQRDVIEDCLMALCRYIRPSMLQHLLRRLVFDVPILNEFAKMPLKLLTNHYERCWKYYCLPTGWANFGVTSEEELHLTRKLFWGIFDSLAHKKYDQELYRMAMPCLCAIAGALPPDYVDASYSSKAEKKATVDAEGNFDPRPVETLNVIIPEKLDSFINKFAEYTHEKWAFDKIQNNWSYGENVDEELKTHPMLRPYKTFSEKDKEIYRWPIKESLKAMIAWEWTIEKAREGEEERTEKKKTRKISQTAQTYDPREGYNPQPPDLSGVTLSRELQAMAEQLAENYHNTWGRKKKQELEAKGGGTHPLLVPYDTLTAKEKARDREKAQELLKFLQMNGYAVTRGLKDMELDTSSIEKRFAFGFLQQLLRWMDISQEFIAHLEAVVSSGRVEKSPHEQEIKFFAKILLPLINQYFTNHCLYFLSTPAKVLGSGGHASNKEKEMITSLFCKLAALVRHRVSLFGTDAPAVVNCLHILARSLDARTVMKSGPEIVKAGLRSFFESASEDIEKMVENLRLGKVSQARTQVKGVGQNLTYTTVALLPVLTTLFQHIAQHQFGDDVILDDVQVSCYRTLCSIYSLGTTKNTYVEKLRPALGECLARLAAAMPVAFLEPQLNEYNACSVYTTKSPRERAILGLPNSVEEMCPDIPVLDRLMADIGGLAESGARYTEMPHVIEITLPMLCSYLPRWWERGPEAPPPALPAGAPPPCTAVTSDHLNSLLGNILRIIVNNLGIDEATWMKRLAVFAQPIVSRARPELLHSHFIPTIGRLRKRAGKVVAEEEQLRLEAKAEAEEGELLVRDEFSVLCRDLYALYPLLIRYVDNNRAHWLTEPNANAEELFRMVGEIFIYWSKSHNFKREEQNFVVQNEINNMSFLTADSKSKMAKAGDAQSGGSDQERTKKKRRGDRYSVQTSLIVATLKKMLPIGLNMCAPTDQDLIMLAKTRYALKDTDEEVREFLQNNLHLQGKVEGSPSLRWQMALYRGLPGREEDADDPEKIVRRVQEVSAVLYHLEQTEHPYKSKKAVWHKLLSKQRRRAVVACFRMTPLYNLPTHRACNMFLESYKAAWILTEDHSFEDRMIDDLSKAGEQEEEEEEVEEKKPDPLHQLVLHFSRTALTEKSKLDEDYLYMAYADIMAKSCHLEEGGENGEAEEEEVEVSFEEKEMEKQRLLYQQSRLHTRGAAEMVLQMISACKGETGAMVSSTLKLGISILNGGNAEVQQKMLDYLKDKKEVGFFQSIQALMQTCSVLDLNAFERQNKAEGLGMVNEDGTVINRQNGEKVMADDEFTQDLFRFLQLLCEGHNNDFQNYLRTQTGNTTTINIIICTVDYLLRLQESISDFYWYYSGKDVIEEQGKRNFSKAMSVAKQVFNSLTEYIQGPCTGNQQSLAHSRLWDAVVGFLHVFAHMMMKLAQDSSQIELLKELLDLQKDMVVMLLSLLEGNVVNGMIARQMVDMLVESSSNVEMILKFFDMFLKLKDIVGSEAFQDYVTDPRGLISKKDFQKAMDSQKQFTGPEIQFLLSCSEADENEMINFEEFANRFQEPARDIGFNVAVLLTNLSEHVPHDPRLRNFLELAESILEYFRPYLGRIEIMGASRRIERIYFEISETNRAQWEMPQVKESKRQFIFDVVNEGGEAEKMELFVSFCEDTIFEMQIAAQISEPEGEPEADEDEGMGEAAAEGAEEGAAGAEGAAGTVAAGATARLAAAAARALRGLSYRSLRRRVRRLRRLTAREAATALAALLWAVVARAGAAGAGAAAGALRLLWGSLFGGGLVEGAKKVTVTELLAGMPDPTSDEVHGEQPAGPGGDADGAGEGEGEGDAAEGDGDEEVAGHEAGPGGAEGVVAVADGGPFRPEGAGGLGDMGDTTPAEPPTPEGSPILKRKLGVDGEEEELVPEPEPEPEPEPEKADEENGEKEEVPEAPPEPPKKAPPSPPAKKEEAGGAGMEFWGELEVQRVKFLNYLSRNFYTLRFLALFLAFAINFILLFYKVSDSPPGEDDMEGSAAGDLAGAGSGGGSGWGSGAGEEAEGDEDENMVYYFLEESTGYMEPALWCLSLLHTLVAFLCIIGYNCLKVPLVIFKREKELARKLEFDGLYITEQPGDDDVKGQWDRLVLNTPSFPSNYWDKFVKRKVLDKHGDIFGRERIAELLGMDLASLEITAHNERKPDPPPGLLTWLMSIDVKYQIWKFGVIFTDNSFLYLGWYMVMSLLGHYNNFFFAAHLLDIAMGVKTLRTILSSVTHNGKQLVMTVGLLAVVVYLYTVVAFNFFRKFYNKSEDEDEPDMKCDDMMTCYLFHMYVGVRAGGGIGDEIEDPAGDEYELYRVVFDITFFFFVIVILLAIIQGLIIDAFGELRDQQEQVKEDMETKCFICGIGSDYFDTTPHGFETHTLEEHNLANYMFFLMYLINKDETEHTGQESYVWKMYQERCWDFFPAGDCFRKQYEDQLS

B1: RyR-specific nanobody Nb9657 (VHH)
VHH: QVQLQESGGGLMQAGGSLRLSCTASGSIFSINSMGWYRQAPGKQRELVATITSGNSINYADSVKGRFTISRDNAKNTVYLQMNSLKPEDTAVYYCNADRVPNGYNPWGTPNDEYDYWGQGTQVTVSS
Turning to B1, the binding result is listed as “binds”.
